Assay results published in PMC9576616, “Synthesis, preclinical evaluation and radiation dosimetry of a dual targeting PET tracer [^68Ga]Ga-FAPI-RGD” (Theranostics, 2022).
Read-outs that look alike come from different tables or passages of the source. Blank lines part the entries; values can stand above or below the compound they belong to.

How the values were obtained:
[1] = tested on: primary tumors and metastases; test: Comparison of [^68Ga]Ga-FAPI-RGD and 2-[^18F]FDG PET/CT tumor uptake in patients
Procedure: (§1) All patients underwent [^68Ga]Ga-FAPI-RGD PET/CT and 2-[^18F]FDG PET scanning using a dedicated PET/CT scanner (Biograph mCT64, Siemens Healthcare).
(§2) [^68Ga]Ga-FAPI-RGD PET/CT The CT scans were performed with a tube voltage of 120 kV, an effective tube current of 70-120 mA (Care Dose 4D), and a slice thickness of 3 mm. Serial whole-body dynamic PET scans were immediately performed after the CT scan in 3D acquisition mode (matrix: 200 × 200). The whole body (from the top of skull to the middle of femur) of each patient was covered by 6 bed positions. The acquisition duration was 30 s/bed position at 3 min after injection; 1 min/bed position at 15 min after injection; and 2 min/bed position at 30, 60, and 120 min after injection.
(§3) 2-[^18F]FDG PET/CT All patients were fast at least 6 h to keep and images were obtained at 60-80 min after the intravenous injection of 2-[^18F]FDG (3.70 MBq [0.10 mCi]/kg). 2-[^18F]FDG was purchased from Fuzhou PET-Tracer Co. Ltd, and the radiochemical purity was more than 95%.
(§4) For [^68Ga]Ga-FAPI-RGD PET/CT, only PET/CT datasets acquired approximately 1 h after injection were used for analysis.

[2] = MicroPET imaging in Panc02 tumor-bearing mice; set-up: species or system C57BL/6 mice; conditions: C57BL/6, mouse, in vivo, iv, 7.4 MBq, total radioactivity; for tissue uptake at 0.5 h: 0.5 h p.i.; for tissue uptake at 1 h: 1 h p.i.; for tissue uptake at 2 h: 2 h p.i.; for tissue uptake at 4 h: 4 h p.i.
Procedure: All animal studies were approved by the Animal Care and Use Committee of Xiamen University and carried out in compliance with the national laws related to the conduct of animal experiments. Panc02 tumor model was generated by subcutaneous injection of 5 × 10^6 tumor cells suspended in 100 μL PBS, into the upper limb flank of C57BL/6 mice (Beijing Vital River Laboratory Animal Technology Co., Ltd.). The tumor mice were subjected to microPET and biodistributions studies when the tumor volume reached 200-300 mm^3.
PET scans were performed by using Inveon small-animal PET scanner (Siemens Preclinical Solution). About 7.4 MBq of [^68Ga]Ga-FAPI-RGD was given to Panc02 tumor xenografted mice through tail vein injection for the 10-min static PET imaging. At 0.5, 1, 2 and 4 h post-injection (p.i.), mice were anaesthetized and placed on imaging chamber of PET/CT scanner for image acquisition. […] The blocking study was performed by injecting unlabeled c(RGDfK), FAPI-02, or RGDfK+FAPI-02, before administering [^68Ga]Ga-FAPI-RGD. PET images were reconstructed using three-dimensional ordered-subset expectation-maximization (3D OSEM) algorithm and with a Maximum a Posteriori (MAP) method and analyzed through drawing regions of interest (ROIs).

[3] = human, in vivo
Procedure: Organ delineation and activity accumulation at each imaging time point was determined using Hybrid-Dosimetry software (Hermes Medical Solutions, Sweden). Time-activity curve fitting and subsequent dose calculation was performed using OLINDA/EXM, version 2.2.0. Kidneys, liver, spleen, urinary bladder content, L2-L4 lumbar vertebrae for red marrow dosimetry, heart content, lung, brain, pancreas, thyroid, salivary glands and stomach contents were included as source organs. Red bone marrow dosimetry was done by image-based 3D volumetric analysis of L2-L4 vertebrae, which is considered to constitute 6.7% of the total bone marrow. The ROIs for the above organs were drawn from the examination that had the best organ delineation and then were copied onto all other time points to calculate the time-activity curves. The mono- or bi-exponential curve fitting parameters were applied to derive the best curve fit for the residence time of activity in the source organ. Once all the organ residence times were derived from the kinetic input model, they were entered in the adult female or male model data to derive the absorbed doses to all the organs, including the whole-body effective dose, and generated in mSv/MBq and rem/mCi. The time-activity graphs of various organs were generated using GraphPad Prism software.

[4] = assay type: physicochemical
Procedure: Radiolabeling of ^68Ga was performed by incubation with 50 μg FAPI-RGD in NaOAc buffer solution (pH = 4.5) at 95 ℃ for 10 min. The product was purified by C18 column extraction. The radiochemical purity and stability of [^68Ga]Ga-FAPI-RGD were determined by radio-HPLC.
FAPI-RGD and its intermediate products were characterized by TOF-MS and HPLC (Figure S1-9). The radiolabeling yield and radiochemical purity of [^68Ga]Ga-FAPI-RGD were consistently over 99%. […] The radiochemistry purity was over 99% within 4 h.

in vivo = test: in vivo; set-up: species or system C57BL/6 mice; conditions: C57BL/6, mouse, iv, 740 kBq, total radioactivity
Procedure: All animal studies were approved by the Animal Care and Use Committee of Xiamen University and carried out in compliance with the national laws related to the conduct of animal experiments. […] Tissue and organs of interest were collected, wet weighted and activity measured by a γ-counter. […] The results were calculated as percentage of injected dose per gram (%ID/g).

clinical [5] = conditions: human, in vivo, total radioactivity
Procedure: as §1, §2, §3, §4

clinical [6] = conditions: human, in vivo, total radioactivity; remark: listed apart in the source
Procedure: (§5) This study was approved by the institutional review board of the First Affiliated Hospital, Fujian Medical University and registered at ClinicalTrials.gov (NCT05515783). All patients signed an informed consent form before participation and all procedures were conducted in accordance with the Declaration of Helsinki. The inclusion criteria were as follows: […] (2) primary malignancies confirmed by pathology. The exclusion criteria were patients: (1) who suffered from severe hepatic and renal insufficiency; (2) pregnant or lactational women.

[7] = tested on: malignant tumors and normal organs; test: clinical; conditions: human, in vivo
Procedure: as §5

Panc02 tumor cells = test: Cellular uptake assay on Panc02 tumor cells; assay type: cell-based; conditions: 37 kBq, 37 °C, 10, 30, 60, 90 and 120 min, n = 4
Procedure: Panc02 cell line was purchased from the American Type Culture Collection (ATCC), and cultured in Dulbecco modified Eagle medium (DMEM) containing 10% (v/v) fetal bovine serum (FBS) at 37 °C with 5% CO2. Panc02 cells were seeded in 24-well plates with 2 × 10^5 cells per well. […] Then, the medium was removed and the cells were washed twice with cold PBS (pH 7.4) and subsequently lysed with 0.5 mL of NaOH (1 M). In the blocking studies, excess amount of unlabeled FAPI-RGD, FAPI-02, RGDfK, FAPI-02+RGDfK (10 μg/well) were added as inhibitors into the cells along with [^68Ga]Ga-FAPI-RGD. After 1 h, the cells were treated in the same way. Cell lysates was collected and the radioactivity was determined using a γ counter.

[8] = i.v. tail vein, n = 3, ROI, mean ± SD
[9] = average SUVmean of thyroid glands

mean SUVmax in primary tumors ([1]; 6 patients, FAPI-RGD approximately 1 h after injection, FDG 60-80 min after injection, mean ± SD, p = 0.459): 10.3 ± 6.9 | SUVmax of primary lesion, patient with renal cell carcinoma ([1]; single patient, intra-individual comparison): 2.7 | SUVmax of metastasis ([1]; three patients with metastatic foci, mean ± SD, p = 0.373): 7.6 ± 5.3
Structure (SMILES): OC[C@H]1O[C@@H](O)[C@H]([18F])[C@@H](O)[C@@H]1O [2-[^18F]FDG, reference compound]

Structure (SMILES): N#C[C@@H]1CCCN1C(=O)CNC(=O)c1ccnc2ccc(OCCCN3CCN(C(=O)CCOCCOCCNC(=O)[C@H](CCC(=O)NCCOCCOCCC(=O)NCCCC[C@@H]4NC(=O)[C@@H](Cc5ccccc5)NC(=O)[C@H](CC(=O)O)NC(=O)CNC(=O)[C@H](CCCNC(=N)N)NC4=O)NC(=O)CN4CCN(CC(=O)O)CCN(CC(=O)O)CC4)CC3)cc12 [[^68Ga]Ga-FAPI-RGD, metal not drawn]
tissue uptake at 0.5 h [2, 8]: 5.25 ± 0.54 %ID/g | tissue uptake at 1 h [2, 8]: 5.13 ± 0.65 %ID/g | tissue uptake at 2 h [2, 8]: 5.33 ± 0.27 %ID/g | tissue uptake at 4 h ([2]; i.v. tail vein, n = 3, ROI, mean ± SD, read-out: tumor uptake (microPET)): 5.04 ± 0.16 %ID/g | tissue uptake at 4 h ([2]; n = 3, read-out: blood uptake (microPET)): 1.4 ± 0.08 %ID/g | tissue uptake at 4 h ([2]; n = 3, read-out: kidney uptake (microPET)): 2.78 ± 0.46 %ID/g | tissue uptake at 4 h ([2]; n = 3, read-out: liver uptake (microPET)): 1.83 ± 0.39 %ID/g | effective dose [3]: 1.94 mSv/100 MBq | total body effective dose for administration of 185 MBq (5.0 mCi) [3]: 3.6 mSv | Estimated absorbed dose, Adrenals ([3]; iv): 1.04E-02 mSv/MBq | Estimated absorbed dose, Brain ([3]; iv): 3.38E-03 mSv/MBq | Estimated absorbed dose, Esophagus ([3]; iv): 7.55E-03 mSv/MBq | Estimated absorbed dose, Eyes ([3]; iv): 5.47E-03 mSv/MBq | Estimated absorbed dose, Gallbladder Wall ([3]; iv): 8.35E-03 mSv/MBq | Estimated absorbed dose, Heart Wall ([3]; iv): 2.04E-02 mSv/MBq | Estimated absorbed dose, Kidneys ([3]; iv): 3.24E-02 mSv/MBq | Estimated absorbed dose, Left colon ([3]; iv): 7.80E-03 mSv/MBq | Estimated absorbed dose, Liver ([3]; iv): 1.45E-02 mSv/MBq | Estimated absorbed dose, Lungs ([3]; iv): 2.33E-02 mSv/MBq | Estimated absorbed dose, Osteogenic Cells ([3]; iv): 1.07E-02 mSv/MBq | Estimated absorbed dose, Pancreas ([3]; iv): 3.06E-02 mSv/MBq | Estimated absorbed dose, Prostate ([3]; iv): 1.24E-02 mSv/MBq | Estimated absorbed dose, Rectum ([3]; iv): 1.06E-02 mSv/MBq | Estimated absorbed dose, Red Marrow ([3]; iv): 1.45E-02 mSv/MBq | Estimated absorbed dose, Right colon ([3]; iv): 7.53E-03 mSv/MBq | Estimated absorbed dose, Salivary Glands ([3]; iv): 2.09E-02 mSv/MBq | Estimated absorbed dose, Small Intestine ([3]; iv): 8.16E-03 mSv/MBq | Estimated absorbed dose, Spleen ([3]; iv): 2.25E-02 mSv/MBq | Estimated absorbed dose, Stomach Wall ([3]; iv): 1.20E-02 mSv/MBq | Estimated absorbed dose, Testes ([3]; iv): 7.13E-03 mSv/MBq | Estimated absorbed dose, Thymus ([3]; iv): 7.41E-03 mSv/MBq | Estimated absorbed dose, Thyroid ([3]; iv): 3.31E-02 mSv/MBq | Estimated absorbed dose, Total Body ([3]; iv): 8.92E-03 mSv/MBq | Estimated absorbed dose, Urinary Bladder Wall ([3]; iv): 2.26E-01 mSv/MBq | effective dose ([3]; iv): 1.94E-02 mSv/MBq | time of good stability in saline [4]: at least 4 h | tissue uptake at 0.5 h (in vivo): 6.16 ± 0.46 %ID/g | tissue uptake at 1 h (in vivo): 5.95 ± 0.43 %ID/g | tissue uptake at 2 h (in vivo): 5.78 ± 0.28 %ID/g | tissue uptake at 4 h (in vivo): 5.79 ± 0.22 %ID/g | SUV at 1 h (clinical [5]; SUVmax of metastasis): 6.5 ± 2.6 SUV | SUV at 1 h (clinical [5]; SUVmax of primary lesion, patient with renal cell carcinoma): 5.1 SUV | SUV at 1 h (clinical [5]; mean SUVmax in primary tumors): 8.9 ± 3.2 SUV | SUV at 0.05 h (clinical [6]; [9]): 7.8 SUV | SUV at 2 h (clinical [6]; [9]): 3 SUV | SUV at 0.05 h (clinical [6]; average tumor SUVmax): 7 SUV | SUV at 0.25 h (clinical [6]; average tumor SUVmax): 8 SUV | SUV at 0.5 h (clinical [6]; average tumor SUVmax): 8 SUV | SUV at 1 h (clinical [6]; average tumor SUVmax): 8.3 SUV | SUV at 2 h (clinical [6]; average tumor SUVmax): 9.1 SUV | decline of thyroid SUVmean from 3 min to 2.0 h [7]: 62.5% | main excretory organs [7]: kidneys were the main excretory organs

Structure (SMILES): N=C(N)NCCC[C@@H]1NC(=O)[C@H](CCCCNC(=O)CN2CCN(CC(=O)O)CCN(CC(=O)O)CC2)NC(=O)[C@@H](Cc2ccccc2)NC(=O)[C@H](CC(=O)O)NC(=O)CNC1=O [[^68Ga]Ga-RGDfK, metal not drawn, reference compound]
tissue uptake at 0.5 h [2, 8]: 3.96 ± 0.24 %ID/g | tissue uptake at 1 h [2, 8]: 3.4 ± 0.16 %ID/g | tissue uptake at 2 h [2, 8]: 2.89 ± 0.09 %ID/g | cellular uptake compared with [^68Ga]Ga-FAPI-RGD (Panc02 tumor cells): less than [^68Ga]Ga-FAPI-RGD at all the time points | tissue uptake at 1 h (in vivo): 3.51 ± 0.47 %ID/g
